Columns and labels:
[1] = target: T1, secreted, soluble furin (human, UniProt P09958 108-715, limits assumed); assay: affinity resin, eglin immobilized on Reacti-Gel 6X
T1 construct: Secreted, soluble construct; also called human furin
Protocol: Resins were synthesized by immobilizing purified M4R1-eglin and R4R1-eglin onto Reacti-Gel 6X (Pierce) using the manufacturer's protocol.
The resins were then used to test binding and elution of furin from these resins. […] Enzyme was eluted with 20 mM NaMES (pH 6.0) with approximately 90% yield. Furin binding capacity to the R4R1-eglin Resin was 10-fold higher relative to the M4R1-eglin Resin, but furin was not eluted by dropping pH. Instead, furin bound to the R4R1-eglin column was eluted with buffer containing 2 mM EDTA. 5 mM CaCl₂ was added to restore activity and 85% of the furin activity was recovered. (Unit definition: Release of 1 pmol of AMC/min in a reaction containing […] Boc-Arg-Val-Arg-Arg-MCA, 1 mM CaCl₂ and 20 mM NaMES (pH 7.0) at 37° C.

[2] = target: T2, human PC7 (human, UniProt Q16549 142-667, limits assumed); assay: enzyme inhibition, purified variant; Kassoc
T2 sequence (looked up): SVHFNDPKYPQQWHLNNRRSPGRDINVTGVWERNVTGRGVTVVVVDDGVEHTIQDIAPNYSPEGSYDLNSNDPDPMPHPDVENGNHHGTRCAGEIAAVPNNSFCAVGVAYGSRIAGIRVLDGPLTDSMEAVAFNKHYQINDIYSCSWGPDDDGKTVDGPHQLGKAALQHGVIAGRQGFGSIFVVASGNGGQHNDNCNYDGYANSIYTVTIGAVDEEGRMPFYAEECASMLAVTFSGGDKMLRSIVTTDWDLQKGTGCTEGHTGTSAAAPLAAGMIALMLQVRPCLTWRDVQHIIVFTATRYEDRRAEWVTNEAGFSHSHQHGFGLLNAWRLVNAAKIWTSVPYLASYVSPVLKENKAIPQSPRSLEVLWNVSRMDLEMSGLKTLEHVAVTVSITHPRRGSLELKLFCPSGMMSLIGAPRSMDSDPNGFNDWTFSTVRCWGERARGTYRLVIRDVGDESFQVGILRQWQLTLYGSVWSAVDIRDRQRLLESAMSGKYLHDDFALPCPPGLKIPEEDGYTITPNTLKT

[3] = target: T1, secreted, soluble furin; assay: enzyme inhibition, purified variant; Kassoc
[4] = target: T3, secreted, soluble Kex2 (Saccharomyces cerevisiae, UniProt P13134 114-613, limits assumed); assay: enzyme inhibition, purified variant; Kassoc
T3 construct: Secreted, soluble construct; also called kexin
T3 sequence (looked up): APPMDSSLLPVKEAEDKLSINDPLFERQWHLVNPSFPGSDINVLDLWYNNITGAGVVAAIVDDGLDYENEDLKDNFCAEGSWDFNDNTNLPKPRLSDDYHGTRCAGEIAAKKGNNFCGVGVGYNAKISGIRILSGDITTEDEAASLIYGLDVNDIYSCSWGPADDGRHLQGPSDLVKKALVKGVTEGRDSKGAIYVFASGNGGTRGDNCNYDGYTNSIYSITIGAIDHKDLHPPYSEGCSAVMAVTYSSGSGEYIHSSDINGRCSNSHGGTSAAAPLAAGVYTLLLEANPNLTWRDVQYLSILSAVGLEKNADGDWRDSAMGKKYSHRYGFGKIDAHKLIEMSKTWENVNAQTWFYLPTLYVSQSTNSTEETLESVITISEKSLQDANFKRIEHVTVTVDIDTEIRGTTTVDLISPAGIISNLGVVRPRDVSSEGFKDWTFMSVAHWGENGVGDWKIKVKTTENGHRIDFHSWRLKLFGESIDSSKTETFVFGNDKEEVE

[5] = target: T2, human PC7; assay: cell-based or functional assay
[6] = target: T1, secreted, soluble furin; assay: cell-based or functional assay
[7] = target: T3, secreted, soluble Kex2; assay: cell-based or functional assay
[8] = target: trypsin; assay: enzyme inhibition; temporary inhibitor of trypsin
[9] = target: T1, secreted, soluble furin; assay: estimated from koff
Protocol: (§1) In some aspects of the present invention, biological application of the eglin c variants of the present invention as inhibitors of processing in vivo depends upon the rate of binding to target enzymes, where it is critical. Therefore, the rate of action of eglin variants with Kex2 and furin was examined by incubating 5×10⁻¹⁰ M enzyme with inhibitor at molar ratios of inhibitor to enzyme ranging from 10 to 80. […] The relationship between kobs and inhibitor concentration was linear. The values of kₒₙ were determined from the slope of such curves, and dissociation rate constants (koff) were calculated (koff=kₒₙ/Kₐ). For R4R1-eglin, koff was calculated to be 2×10⁻⁴s⁻¹ for Kex2, and 3×10⁻⁴s⁻¹ for furin. […] Similarly, the t_{1/2} of the complex of M4R1-eglin with Kex2 was estimated to be 3 h. For complex of R4K1-eglin with furin, koff was calculated to be 2×10⁻⁴s⁻¹ implying that the koff and t_{1/2} for this complex are similar to those for the complex of R4R1-eglin with furin.

[10] = target: T3, secreted, soluble Kex2; assay: estimated from koff
Protocol: as §1

[11] = target: T2, human PC7; assay: enzyme inhibition, purified variant
[12] = target: T1, secreted, soluble furin; assay: enzyme inhibition, purified variant
[13] = target: T3, secreted, soluble Kex2; assay: enzyme inhibition, purified variant

T1 sequence (P09958 108-715 limits assumed): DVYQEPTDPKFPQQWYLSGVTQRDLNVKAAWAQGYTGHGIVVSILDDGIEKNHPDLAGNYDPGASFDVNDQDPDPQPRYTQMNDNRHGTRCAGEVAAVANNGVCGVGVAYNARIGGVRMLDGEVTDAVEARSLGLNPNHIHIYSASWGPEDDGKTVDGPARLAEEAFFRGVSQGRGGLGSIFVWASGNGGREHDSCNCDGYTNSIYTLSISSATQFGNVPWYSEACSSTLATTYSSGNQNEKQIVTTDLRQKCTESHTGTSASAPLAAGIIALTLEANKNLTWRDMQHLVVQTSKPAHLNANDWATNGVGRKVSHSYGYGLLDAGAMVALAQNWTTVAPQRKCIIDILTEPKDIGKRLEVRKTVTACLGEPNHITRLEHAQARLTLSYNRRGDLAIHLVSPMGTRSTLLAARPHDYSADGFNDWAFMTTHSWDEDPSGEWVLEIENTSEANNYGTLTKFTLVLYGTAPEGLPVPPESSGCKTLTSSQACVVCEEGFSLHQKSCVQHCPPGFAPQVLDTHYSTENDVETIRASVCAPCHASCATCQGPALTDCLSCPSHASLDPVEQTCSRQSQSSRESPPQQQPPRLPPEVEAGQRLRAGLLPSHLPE
Chain of trypsin (P00760 24-246): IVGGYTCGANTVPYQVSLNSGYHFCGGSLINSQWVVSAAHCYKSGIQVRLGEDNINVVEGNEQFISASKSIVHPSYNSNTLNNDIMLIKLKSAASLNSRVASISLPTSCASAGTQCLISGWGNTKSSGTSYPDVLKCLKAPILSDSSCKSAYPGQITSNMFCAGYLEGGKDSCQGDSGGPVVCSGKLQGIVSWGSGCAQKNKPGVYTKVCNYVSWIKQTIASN

B1: R4R1-eglin (designed binder)
chain: SMGSELKSFPEVVGKTVDQAREYFTLHYPQYDVYFLPEGSRVTRDLRYNRVRVFYNPGTNVVNHVPHVG
notes: N-terminal Met removed; also called Tyr49-R4R1-; D33Y49
In the case of B1, the “furin binding capacity of the resin relative to the M4R1-eglin Resin” value [1] is reported as 10 fold, the Ka [2] is reported as 7.7e+08 M⁻¹ and the Ka [3] is reported as 4e+08 M⁻¹. For the same binder, the Ka [4] was 1.1e+09 M⁻¹, the “% inhibition of enzyme in rapid protease inhibition assay” value (from here on “% inhibition of enzyme”) [5] was 70% and the “% inhibition of enzyme” value [6] was 60%. For the same binder, the “% inhibition of enzyme” value [7] was 60%, the Ka [8] was 8.4e+09 M⁻¹ and the “half-life (t1/2) of the complex” value [9] was ~1 h. For the same binder, the “half-life (t1/2) of the complex” value [10] was ~1 h, the Ki [11] was 1.3 nM and the Ki [12] was 2.5 nM. For the same binder, the Ki [13] was 0.91 nM.
